{"source": "patent US20220370611", "test_system": "T1, VPF-FRRG(SEQ ID NO: 1)-DOX self-assembled nanoparticles (LT-NPs)", "T1 sequence": "FRRG", "data": [{"substance": "cathepsin B (Cat-B) protease", "values": [{"measurement": "cleavage of LT-NPs after enzymatic reaction with cathepsin B (RP-HPLC at 0, 9 and 24 h; fluorescence spectrophotometry)", "result": "the self-assembled nanoparticles (LT-NPs) were cleaved by cathepsin B to release doxorubicin and the photosensitizer"}, {"measurement": "morphology by transmission electron microscopy after 24 h reaction with cathepsin B (50 ug/mL)", "result": "the self-assembled nanoparticles (LT-NPs) were degraded by cathepsin B present in cancer cells and existed in an activated state"}]}]}
